The target of experiment [1] is T1, human IL-1α (human, UniProt P01583 113-271).
T1 sequence (looked up): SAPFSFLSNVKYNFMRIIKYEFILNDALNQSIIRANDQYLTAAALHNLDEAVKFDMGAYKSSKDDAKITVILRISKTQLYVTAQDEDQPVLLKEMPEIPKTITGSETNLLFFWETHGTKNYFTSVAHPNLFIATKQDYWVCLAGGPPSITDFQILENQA
The experiment is described as follows: cell-based or functional assay.

Experiment [2] deals with T1, human IL-1α. The experiment is described as follows: BIAcore kinetic analysis of the dAb. In general terms: In SPR one partner is held on a chip, and binding of the other changes the refractive index at the surface.
The target in experiment [3] is T1, human IL-1α. The experiment is described as follows: BIAcore, IL-1α coated chip, dAb flowed over.
In experiment [4] the target is T1, human IL-1α. The experiment is described as follows: cell-based or functional assay. This is another data set of the same source.
Experiment [5] deals with T2, human IL-1β (human, UniProt P01584 117-269). The experiment is described as follows: cell-based or functional assay.
Experiment [6] concerns the target T1, human IL-1α. The experiment is described as follows: cell-based or functional assay. This is another data set of the same source.
For experiment [7], the target named is T2, human IL-1β. The experiment can be described thus: cell-based or functional assay. This is another data set of the same source.
Experiment [8] addresses T1, human IL-1α. The experiment can be described thus: Receptor Binding Assay, IgG; value beside the ABT1 clone.
Experiment [9] addresses T2, human IL-1β. The experiment can be described thus: Receptor Binding Assay, IgG; value beside the ABT2 clone.
Experiment [10] addresses T2, human IL-1β. The experiment can be described thus: cell-based or functional assay. This is another data set of the same source.
Experiment [11] deals with T1, human IL-1α. The experiment can be described thus: BIAcore kinetic analysis of the dAb. The source holds these as a separate data set.
The target in experiment [12] is T1, human IL-1α. The experiment is described as follows: cell-based or functional assay. The source holds these as a separate data set.
In experiment [13] the target is T1, human IL-1α. The experiment is described as follows: BIAcore kinetic analysis of the dAb. This is another data set of the same source.
Experiment [14] deals with T1, human IL-1α. The experiment is described as follows: BIAcore kinetic analysis of the dAb. This is another data set of the same source.
Experiment [15] deals with T1, human IL-1α. The experiment can be described thus: BIAcore kinetic analysis of the dAb. The source holds these as a separate data set.
Experiment [16] deals with T1, human IL-1α. The experiment can be described thus: method not given.
In experiment [17] the target is T1, human IL-1α. The experiment is described as follows: BIAcore kinetic analysis of the dAb. The source holds these as a separate data set.
For experiment [18], the target named is T1, human IL-1α. The experiment is described as follows: cell-based or functional assay. This is another data set of the same source.

Values joined by “and” are separate entries in the source; they are usually repeats but may differ in a detail not shown here. Equal entries are not always repeated. Where two headings read alike, the source gives them in different places.

B1: ABT1-122 (other)
VL: DIQMTQSPSSLSASVGDRVTITCRASQPIWTELNWYQQKPGKAPKLLIYGSSSLQSGVPSRFSGSGSGTDFTLTISSLQPEDFATYYCQQFAYFPATFGQGTKVEIKR
notes: dAb, Vκ, to IL-1α
What is called Kd is the concentration at which binding is half-saturated. A high value points to lower affinity. As a reminder, the koff is the first-order rate constant of dissociation. The kon is a measure of how fast the partners come together. Read a low kon as slow association. For the molecule B1, in experiment [1], the “MRC5 ND10” value is 9 nM and the “MRC5 ND50” value turned out to be 50 nM. In [2], binding was put at a Kd of 42 nM, the koff came out at 0.28 s⁻¹ and the association rate constant (kon) came to 6.6e+06 M⁻¹ s⁻¹. Moreover, in [3], the Kd was in the range of 40 to 86 nM.

B2: ABT2-65-166/ABT1-95-A3 huIgG1/K wt (bispecific antibody, V domains shown)
VH: EVQLLESGGGLVQPGGSLRLSCAASGFTFEDYQMGWVRQAPGKGLEWVSSISAMGGRTYYADSVKGRFTISRDNSKNTLYLQMNSLRAEDTAVYYCAQNLVRLGRSRWMFDYWGQGTLVTVSS
VL: DIQMTQSPSSLSASVGDRVTITCRASKPGVRNMRWYQQKPGKAPKLLIYSVSYLEPGVPSRFSGSGSGTDFTLTISSLQPEDFATYHCLQGYRWPPTFGQGTKVEIKR
notes: hu IgG1/K wt; also called 1-95-A3 / 2-65-166
By IC50 is commonly meant the concentration that gives 50% inhibition. Low readings indicate higher potency, high ones lower potency. In the case of B2, in experiment [4], the “IL-1α IC50” value is 0.026 nM and 0.0178 nM. The “IL-1β IC50” value in experiment [5] was 0.17 nM. Moreover, the “MRC5 IL-1α” value in experiment [6] stood at 0.017 nM. For the same molecule, the “MRC5 IL-1β” value in experiment [7] turned out to be 0.15 nM. Further, the IC50 is 0.083 nM in [8] and 0.709 nM in [9].

B3: ABT2-65-166 (other)
VH: EVQLLESGGGLVQPGGSLRLSCAASGFTFEDYQMGWVRQAPGKGLEWVSSISAMGGRTYYADSVKGRFTISRDNSKNTLYLQMNSLRAEDTAVYYCAQNLVRLGRSRWMFDYWGQGTLVTVSS
Turning to B3, the “MRC5 ND50” value in [10] is 4 nM.

B4: ABT2-65-17 (other)
VH: EVQLLESGGGLVQPGGSLRLSCVASGFTFEDYQMGWVRQAPGKGLEWVSSISAMGNRTYYADSVKGRFTISRDDSKNTLYLQMNSLRAEDTAVYYCAQNLVRLGRSRWMFDYWGQGTLVTVSS
For B4, in experiment [10], the “MRC5 ND50” value amounted to 2 nM.

B5: ABT2-65-166/ABT1-95-A6 hu IgG1/K wt (bispecific antibody, V domains shown)
VH: EVQLLESGGGLVQPGGSLRLSCAASGFTFEDYQMGWVRQAPGKGLEWVSSISAMGGRTYYADSVKGRFTISRDNSKNTLYLQMNSLRAEDTAVYYCAQNLVRLGRSRWMFDYWGQGTLVTVSS
VL: DIQMTQSPSSLSASVGDRVTITCRASKPGVRNMRWYQQKPGKAPKLLIYAKSYLEPGVPSRFSGSGSGTDFTLTISSLQPEDFATYHCKQGYRWPVQFGQGTKVEIKR
notes: hu IgG1/K wt; also called 1-95-A6 / 2-65-166
Turning to B5, the “IL-1β IC50” value in experiment [5] was found to be 0.32 nM. The “MRC5 IL-1α” value in experiment [6] stood at 0.019 nM. Also, the “MRC5 IL-1β” value in experiment [7] was 0.207 nM. Further, the values for the IC50 in experiment [8] and in experiment [9] were 0.108 nM and 0.537 nM, respectively.

B6: IgG pairing ABT1-95-A2 with ABT2-65-166 (bispecific antibody, V domains shown)
VH: EVQLLESGGGLVQPGGSLRLSCAASGFTFEDYQMGWVRQAPGKGLEWVSSISAMGGRTYYADSVKGRFTISRDNSKNTLYLQMNSLRAEDTAVYYCAQNLVRLGRSRWMFDYWGQGTLVTVSS
VL: DIQMTQSPSSLSASVGDRVTITCRILQPPGRNLRWYQQKPGKAPKLLIYSKSFLEPGVPSRFSGSGSGTDFTLTISSLQPEDFATYHCQQGYRWPVTFGQGTKVEIKR
notes: IgG; also called 1-95-A2 / 2-65-166
B6: in [6], the “MRC5 IL-1α” value was found to be 0.08 nM. Moreover, the “MRC5 IL-1β” value in [7] was 0.121 nM. The IC50 in [8] was 0.067 nM; in experiment [9] it was 0.073 nM.

B7: ABT1-98 (other)
VH: EVQLLESGGGLVQPGGSLRLSCAASGFTFDGYIMSWVRQAPGKGLEWVSTISPLGSVTYYADSVKGRFTISRDNSKNTLYLQMNSLRAEDTAVYYCAKKGPWFDYWGQGTLVTVSS
notes: dAb, VH, to IL-1α; also called dAb ABT1-98
Regarding B7, in experiment [1], the “MRC5 ND10” value came out at 10 nM and the “MRC5 ND50” value came out at 30 nM. In addition, in experiment [11], the Kd was found to be 13 nM, the koff was found to be 0.027 s⁻¹ and the kon stood at 2e+06 M⁻¹ s⁻¹.

B8: ABT1-6-23 (other)
VH: EVQLLESGGGLVQPGGSLRLSCAASGFTFVRYDMAWVRQAPGKGLEWVSSIYKSGALTSYADSVKGRFTISRDNSKNTLYLQMNSLRAEDTAVYYCAKGWASFDYWGQGTLVTVSS
notes: dAb, VH, to IL-1α; also called dAb ABT1-6-23
B8: in [1], the “MRC5 ND10” value is 3 nM and the “MRC5 ND50” value amounted to 30 nM. The “MRC5 ND50” value in experiment [12] came to 0.03 µM. In experiment [13], this molecule registered a Kd of 61 nM, a koff of 0.012 s⁻¹ and a kon of 200000 M⁻¹ s⁻¹.

B9: ABT1-6-15 (other)
VH: EVQLLESGGGLVQPGGSLRLSCAASGFTFVRYDMAWVRQAPGKGLEWVSSINKSGALTSYADSVKGRFTISRDNSKNTLYLQMNSLRAEDTAVYYCAKGWASFDYWGQGTLVTVSS
Take B9: the “MRC5 ND50” value in [12] is 2 µM.

B10: ABT1-6-3 (other)
VH: EVQLLESGGGLVQPGGSLRLSCAASGFTFGAYDMQWVRQAPGKGLEWVSSIYKSGALTSYADSVKGRFTISRDNSKNTLYLQMNSLRAEDTAVYYCAKGWASFDYWGQGTLVTVSS
Regarding B10, the “MRC5 ND50” value in [12] amounted to 0.08 µM.

B11: ABT1-96 (other)
VH: EVQLLESGGGLVQPGGSLRLSCAASGFTFNQYNMFWVRQAPGKGLEWVSVISGSGRFTYYADSVKGRFTISRDNSKNTLYLQMNSLRAEDTAVYYCAKGWWRRDPPFDYWGQGTLVTVSS
notes: dAb, VH, to IL-1α; also called dAb ABT1-96
For B11, in [1], the “MRC5 ND10” value was determined as 3 nM and the “MRC5 ND50” value is 11 nM. In experiment [14], this molecule displayed a Kd of 1.1 nM, a koff of 0.00039 s⁻¹ and a kon of 370000 M⁻¹ s⁻¹.

B12: ABT1-86 (other)
VH: EVQLLESGGGLVQPGGSLRLSCAASGFTFDRYIMAWVRQAPGKGLEWVSSITPSGAATYYADSVKGRFTISRDNSKNTLYLQMNSLRAEDTAVYYCAEEPADRYSTWTFDYWGQGTLVTVSS
notes: dAb, VH, to IL-1α
Consider B12, for which, in experiment [1], the “MRC5 ND10” value was under 200 nM and the “MRC5 ND50” value came out at 900 nM. In [15], this molecule came in with a Kd of 110 nM, an off-rate (koff) of 0.09 s⁻¹ and an on-rate constant (kon) of 820000 M⁻¹ s⁻¹.

B13: ABT1-95 (other)
VL: DIQMTQSPSSLSASVGDRVTITCRASQPIHGNLRWYQQKPGKAPKLLIYNISNLQSGVPSRFSGSGSGTDFTLTISSLQPEDFATYYCQQGYRWPVTFGQGTKVEIKR
notes: dAb, Vκ, to IL-1α; also called dAb ABT1-95
As to B13, in experiment [1], the “MRC5 ND10” value was 150 nM and the “MRC5 ND50” value amounted to 700 nM. In [16], this molecule displayed a Kd of 200 nM. Further, in experiment [17], the Kd was 45 nM, the koff was 0.022 s⁻¹ and the association rate constant (kon) is 490000 M⁻¹ s⁻¹.

B14: ABT2-108-538x/ABT1-95-15 huIgG1/K wt (bispecific antibody, V domains shown)
VH: EVQLLESGGGLVQPGGSLRLSCAASGFTFADEGMMWVRQAPGKGLEWVSRITYSGKNTYYADSVKGRFTISRDNSKNTLYLQMNSLRAEDTAVYYCAKYTGRILGHHLFDYWGQGTLVTVSS
VL: DIQMTQSPSSLSASVGDRVTITCRASQPIVRNLRWYQQKPGKAPKLLIYSSSYLEPGVPSRFSGSGSGTDFTLTISSLQPEDFATYHCQQGYRWPVTFGQGTKVEIKR
notes: hu IgG1/K wt
Take B14: the “MRC5 IL-1α” value in [6] was found to be 8 nM. For the same molecule, in experiment [7], the “MRC5 IL-1β” value stood at 0.042 nM. Further, the IC50 in experiment [8] amounted to 0.54 nM; in experiment [9], 0.071 nM.

B15: ABT2-108-620x/ABT1-95-15 huIgG1/K wt (bispecific antibody, V domains shown)
VH: EVQLLESGGGLVQPGGSLRLSCAASGFTFAEESWMWVRQAPGKGLEWVSRIGQDGKNTYYREDVKGRFTISRDNSKNTLYLQMNSLRAEDTAVYYCAKYTGRIMGHHLFDYWGQGTLVTVSS
VL: DIQMTQSPSSLSASVGDRVTITCRASQPIVRNLRWYQQKPGKAPKLLIYSSSYLEPGVPSRFSGSGSGTDFTLTISSLQPEDFATYHCQQGYRWPVTFGQGTKVEIKR
On to B15, for which the “MRC-5 IL-1a inhibition assay EC50” value in experiment [18] was determined as 5.07 nM. In addition, the “IL-1α IC50” value in experiment [4] amounted to 5 nM. Besides, in experiment [5], the “IL-1β IC50” value came to 0.04 nM.

B16: ABT1-95-1 (other)
chain: DIQMTQSPSSLSASVGDRVTITCRASQPIHGNLRWYQQKPGKAPKLLIYNISNLQSGVPSRFSGSGSGTDFTLTISSLQPEDFATYHCQQGYRWPVTFGQGTKVEIKR
Turning to B16, the Kd was 40 nM in [16] and 20 to 42 nM in experiment [3].

B17: ABT1-95-2 (other)
VL: DIQMTQSPSSLSASVGDRVTITCRASQPIHGNLRWYQQKPGKAPKLLIYSSSYLQSGVPSRFSGSGSGTDFTLTISSLQPEDFATYYCQQGYRWPVTFGQGTKVEIK
notes: dAb, Vκ, to IL-1α
Turning to B17, the Kd in experiment [16] was 40 nM; in [3], 32 to 42 nM.

(Values after patent US20090291081A1 (AbbVie / Abbott, published 2009).)
